Assay results from paper PMC10268231 (Nature, 2021).

T1: PRIM2 (human, UniProt P49643-1 1-509)
T1 sequence (looked up): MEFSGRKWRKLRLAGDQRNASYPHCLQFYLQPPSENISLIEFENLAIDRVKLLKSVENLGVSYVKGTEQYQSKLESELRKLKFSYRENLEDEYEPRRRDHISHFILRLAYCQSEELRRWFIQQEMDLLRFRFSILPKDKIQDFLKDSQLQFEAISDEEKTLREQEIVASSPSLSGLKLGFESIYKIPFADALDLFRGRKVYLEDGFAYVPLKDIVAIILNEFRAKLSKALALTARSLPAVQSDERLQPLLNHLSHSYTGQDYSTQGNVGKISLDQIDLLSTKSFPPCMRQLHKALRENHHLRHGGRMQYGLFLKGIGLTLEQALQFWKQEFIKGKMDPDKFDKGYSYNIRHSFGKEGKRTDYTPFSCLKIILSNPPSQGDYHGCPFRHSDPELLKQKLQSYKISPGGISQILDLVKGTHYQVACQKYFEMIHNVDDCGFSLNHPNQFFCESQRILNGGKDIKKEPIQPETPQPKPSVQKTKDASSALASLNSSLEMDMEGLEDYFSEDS

T2: POLA1 (human, UniProt P09884 1-1462)
T2 sequence (looked up): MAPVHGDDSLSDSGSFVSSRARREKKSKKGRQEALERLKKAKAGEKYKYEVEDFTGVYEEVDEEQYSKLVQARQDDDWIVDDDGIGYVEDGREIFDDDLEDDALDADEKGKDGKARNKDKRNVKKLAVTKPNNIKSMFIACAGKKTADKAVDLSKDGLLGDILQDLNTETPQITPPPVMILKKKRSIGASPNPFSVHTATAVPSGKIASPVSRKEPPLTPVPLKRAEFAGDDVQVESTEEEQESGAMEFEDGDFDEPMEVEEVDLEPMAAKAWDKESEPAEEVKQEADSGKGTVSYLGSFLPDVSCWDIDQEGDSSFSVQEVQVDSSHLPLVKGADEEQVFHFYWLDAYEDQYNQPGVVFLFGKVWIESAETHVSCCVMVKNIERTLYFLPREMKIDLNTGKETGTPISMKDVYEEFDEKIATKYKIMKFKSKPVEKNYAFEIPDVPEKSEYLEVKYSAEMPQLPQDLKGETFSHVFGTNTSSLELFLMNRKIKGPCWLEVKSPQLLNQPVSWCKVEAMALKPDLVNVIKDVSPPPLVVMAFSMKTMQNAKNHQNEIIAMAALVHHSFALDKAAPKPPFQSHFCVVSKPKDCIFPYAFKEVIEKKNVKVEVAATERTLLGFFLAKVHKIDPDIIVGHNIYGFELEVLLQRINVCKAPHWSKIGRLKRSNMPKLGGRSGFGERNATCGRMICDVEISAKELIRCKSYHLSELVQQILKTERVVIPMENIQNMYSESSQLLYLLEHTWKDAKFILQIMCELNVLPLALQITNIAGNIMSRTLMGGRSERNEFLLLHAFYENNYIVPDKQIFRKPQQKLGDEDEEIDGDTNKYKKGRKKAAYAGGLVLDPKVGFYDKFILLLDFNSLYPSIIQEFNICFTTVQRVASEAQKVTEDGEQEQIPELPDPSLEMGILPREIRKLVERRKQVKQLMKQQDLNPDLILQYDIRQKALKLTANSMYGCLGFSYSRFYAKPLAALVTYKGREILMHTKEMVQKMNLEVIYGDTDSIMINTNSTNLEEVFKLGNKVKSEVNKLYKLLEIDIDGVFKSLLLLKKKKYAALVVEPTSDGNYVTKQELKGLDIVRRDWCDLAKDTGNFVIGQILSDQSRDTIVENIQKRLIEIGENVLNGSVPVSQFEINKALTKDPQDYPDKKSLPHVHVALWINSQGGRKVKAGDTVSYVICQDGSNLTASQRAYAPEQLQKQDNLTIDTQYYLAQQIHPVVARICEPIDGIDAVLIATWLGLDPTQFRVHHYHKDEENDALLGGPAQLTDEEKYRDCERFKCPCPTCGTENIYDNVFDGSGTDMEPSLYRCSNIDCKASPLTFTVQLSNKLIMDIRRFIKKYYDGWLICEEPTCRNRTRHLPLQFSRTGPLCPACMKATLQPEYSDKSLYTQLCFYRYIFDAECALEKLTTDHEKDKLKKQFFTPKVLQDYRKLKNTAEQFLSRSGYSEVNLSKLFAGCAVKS

B1: STN1 (natural protein, human)
chain: QPGSSRCEEETPSLLWGLDPVFLAFAKLYIRDILDMKESRQVPGVFLYNGHPIKQVDVLGTVIGVRERDAFYSYGVDDSTGVINCICWKKLNTESVSAAPSAARELSLTSQLKKLQETIEQKTKIEIGDTIRVRGSIRTYREEREIHATTYYKVDDPVWNIQIARMLELPTIYRKVYDQPFHSSALEKEEALSNPGALDLPSLTSLLSEKAKEFLMENRVQSFYQQELEMVESLLSLANQPVIHSASSDQVNFKKDTTSKAIHSIFKNAIQLLQEKGLVFQKDDGFDNLYYVTREDKDLHRKIHRIIQQDCQKPNHMEKGCHFLHILACARLSIRPGLSEAVLQQVLELLEDQSDIVSTMEHYYTAF
B2: PRIM1 (natural protein, human)
chain: ETFDPTELPELLKLYYRRLFPYSQYYRWLNYGGVIKNYFQHREFSFTLKDDIYIRYQSFNNQSDLEKEMQKMNPYKIDIGAVYSHRPNQHNTVKLGAFQAQEKELVFDIDMTDYDDVRRCCSSADICPKCWTLMTMAIRIIDRALKEDFGFKHRLWVYSGRRGVHCWVCDESVRKLSSAVRSGIVEYLSLVKGGQDVKKKVHLSEKIHPFIRKSINIIKKYFEEYALVNQDILENKESWDKILALVPETIHDELQQSFQKSHNSLQRWEHLKKVASRYQNNIKNDKYGPWLEWEIMLQYCFPRLDINVSKGINHLLKSPFSVHPKTGRISVPIDLQKVDQFDPFTVPTISFICRELDAISTNEEEKEENEAESDVKHRTRDYKKTSLAPYVKVFEHFLENLDKSRKGELLKKSDLQKDF
B3: CTC1 (natural protein, human, UniProt Q2NKJ3 1-1217, looked up)
chain: MAAGRAQVPSSEQAWLEDAQVFIQKTLCPAVKEPNVQLTPLVIDCVKTVWLSQGRNQGSTLPLSYSFVSVQDLKTHQRLPCCSHLSWSSSAYQAWAQEAGPNGNPLPREQLLLLGTLTDLSADLEQECRNGSLYVRDNTGVLSCELIDLDLSWLGHLFLFPRWSYLPPARWNSSGEGHLELWDAPVPVFPLTISPGPVTPIPVLYPESASCLLRLRNKLRGVQRNLAGSLVRLSALVKSKQKAYFILSLGRSHPAVTHVSIIVQVPAQLVWHRALRPGTAYVLTELRVSKIRGQRQHVWMTSQSSRLLLLKPECVQELELELEGPLLEADPKPLPMPSNSEDKKDPESLVRYSRLLSYSGAVTGVLNEPAGLYELDGQLGLCLAYQQFRGLRRVMRPGVCLQLQDVHLLQSVGGGTRRPVLAPCLRGAVLLQSFSRQKPGAHSSRQAYGASLYEQLVWERQLGLPLYLWATKALEELACKLCPHVLRHHQFLQHSSPGSPSLGLQLLAPTLDLLAPPGSPVRNAHNEILEEPHHCPLQKYTRLQTPSSFPTLATLKEEGQRKAWASFDPKALLPLPEASYLPSCQLNRRLAWSWLCLLPSAFCPAQVLLGVLVASSHKGCLQLRDQSGSLPCLLLAKHSQPLSDPRLIGCLVRAERFQLIVERDVRSSFPSWKELSMPGFIQKQQARVYVQFFLADALILPVPRPCLHSATPSTPQTDPTGPEGPHLGQSRLFLLCHKEALMKRNFCVPPGASPEVPKPALSFYVLGSWLGGTQRKEGTGWGLPEPQGNDDNDQKVHLIFFGSSVRWFEFLHPGQVYRLIAPGPATPMLFEKDGSSCISRRPLELAGCASCLTVQDNWTLELESSQDIQDVLDANKSLPESSLTDLLSDNFTDSLVSFSAEILSRTLCEPLVASLWMKLGNTGAMRRCVKLTVALETAECEFPPHLDVYIEDPHLPPSLGLLPGARVHFSQLEKRVSRSHNVYCCFRSSTYVQVLSFPPETTISIPLPHIYLAELLQGGQSPFQATASCHIVSVFSLQLFWVCAYCTSICRQGKCTRLGSTCPTQTAISQAIIRLLVEDGTAEAVVTCRNHHVAAALGLCPREWASLLDFVQVPGRVVLQFAGPGAQLESSARVDEPMTMFLWTLCTSPSVLRPIVLSFELERKPSKIVPLEPPRLQRFQCGELPFLTHVNPRLRLSCLSIRESEYSSSLGILASSC
B4: CTC1–STN1–TEN1 (CST) complex (complex, human)
chain 1: B3 chain
chain 2: B1 chain
chain 3: LPKPGTYYLPWEVSAGQVPDGSTLRTFGRLCLYDMIQSRVTLMAQHGSDQHQVLVCTKLVEPFHAQVGSLYIVLGELQHQQDRGSVVKARVLTCVEGMNLPLLEQAIREQRLYKQERGGSQ

Tests used:
Test in all cases: cryo-EM structure
PRIM1 = target: B2
PRIM2 = target: T1, PRIM2
POLA1 = target: T2, POLA1
[1] = target: DNA polymerase-α–primase (Polα–primase) complex, PRIM1–PRIM2–POLA1–POLA2, full-length (human, UniProt P09884 1-1462; Q14181-1 1-598; P49642 2-420; P49643-1 1-509)
Sequence of DNA polymerase-α–primase (Polα–primase) complex, PRIM1–PRIM2–POLA1–POLA2, full-length (Q14181 whole entry, one chain of several): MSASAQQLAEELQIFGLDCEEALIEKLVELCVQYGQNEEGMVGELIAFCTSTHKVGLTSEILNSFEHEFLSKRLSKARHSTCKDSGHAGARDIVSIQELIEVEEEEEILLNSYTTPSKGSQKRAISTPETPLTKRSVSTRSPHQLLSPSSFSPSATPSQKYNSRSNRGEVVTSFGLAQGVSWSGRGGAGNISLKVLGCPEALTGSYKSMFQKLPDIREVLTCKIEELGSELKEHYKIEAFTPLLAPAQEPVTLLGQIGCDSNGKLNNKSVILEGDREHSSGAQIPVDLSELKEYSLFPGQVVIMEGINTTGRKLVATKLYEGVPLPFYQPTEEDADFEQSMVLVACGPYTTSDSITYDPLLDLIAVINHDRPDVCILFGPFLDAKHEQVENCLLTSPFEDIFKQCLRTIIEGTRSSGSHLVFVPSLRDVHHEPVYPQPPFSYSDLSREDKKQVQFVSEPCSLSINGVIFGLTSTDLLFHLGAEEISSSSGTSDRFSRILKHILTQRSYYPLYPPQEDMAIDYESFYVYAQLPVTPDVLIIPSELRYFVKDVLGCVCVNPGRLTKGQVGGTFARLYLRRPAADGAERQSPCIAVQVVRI

Binder: B1
binding result (PRIM1): binds

Binder: B2
binding result (PRIM2): binds

Binder: B3
binding result (POLA1): binds

Binder: B4
stoichiometry N [1]: 1
